From the supplement of paper PMC6757056
± gives the standard deviation of the averaged measurements.

B1: library; a variant is named by its letters at N, in order (parent)
chain: GCUGUCACCGGAAUACCAGCAUCGUCUUGAUGCCCUUGGAAGUCCGGUCUGAUGAGUCCNNNNNGGACGAAACAGC

Experiments:
[1] = variants of: B1; experiment: FACS-Seq fitted mean relative fluorescence mCherry/BFP without ligand (log10 relative fluorescence); higher = higher reporter protein expression; settings: HEK293T, ligand present: no
How it was run: (§1)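 With or without ligand for 48 h, enriched HEK293T libraries carrying a lentiviral ribozyme-switch mCherry reporter and EF1α-BFP were sorted into 6 mCherry/BFP bins. Bin genomic DNA was amplified by PCR, barcoded and sequenced on MiSeq. Fluorescence was taken from normal fits to the resulting bin counts. Each fitted mean of log10(mCherry/BFP) was scaled to five spiked-in control ribozymes.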

[2] = variants of: B1; experiment: normalized RNA/DNA level with ligand (relative to sTRSVctl = 100) (log10 (% of sTRSVctl)); higher = less ribozyme self-cleavage, higher mRNA level; settings: ligand concentration (+) RNA-Seq: 5 mM, HEK293T, reporter: mCherry (pCS4076), ligand present: yes
How it was run: (§2)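 RNA level was computed as RNA reads over DNA reads divided by a spiked-in non-cleaving sequence or by the top sequences, then scaled and log-transformed. Scaling was ×100 with log10, the top group was 25 sequences, and the threshold was ≥100 DNA reads. The reads came from HEK293T cells transfected at 4 µg per 6-well well with ribozyme switch library plasmids (mCherry, or eGFP in some ligand experiments). Total RNA was extracted with EDTA 72 h after transfection, with any ligand added 1 h before it.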

[3] = variants of: B1; experiment: normalized RNA/DNA level without ligand (relative to sTRSVctl = 100) (log10 (% of sTRSVctl)); higher = less ribozyme self-cleavage, higher mRNA level; settings: HEK293T, reporter: mCherry (pCS4076), ligand present: no
How it was run: as §2

[4] = variants of: B1; experiment: FACS-Seq fitted mean relative fluorescence mCherry/BFP with ligand (log10 relative fluorescence); ligand concentration (+) FACS-Seq: 1 mM; higher = higher reporter protein expression; settings: HEK293T, ligand present: yes
How it was run: as §1

## AUAGU
[1]
  FACS-Seq fitted mean (log10): 0.0428 ± 0.058
[2]
  normalized RNA/DNA level with ligand (log10): 2.04 ± 0.045
[3]
  normalized RNA/DNA level without ligand (log10): 1.76 ± 0.038
[4]
  FACS-Seq fitted mean (log10): 0.179 ± 0.18

## UUUUC
[1]
  FACS-Seq fitted mean (log10): 0.917 ± 0.042
[2]
  normalized RNA/DNA level with ligand (log10): 2.01 ± 0.077
[3]
  normalized RNA/DNA level without ligand (log10): 1.99 ± 0.18
[4]
  FACS-Seq fitted mean (log10): 0.94 ± 0.041

## AAGGA
[1]
  FACS-Seq fitted mean (log10): 0.338 ± 0.022
[2]
  normalized RNA/DNA level with ligand (log10): 2 ± 0.025
[3]
  normalized RNA/DNA level without ligand (log10): 1.43 ± 0.099
[4]
  FACS-Seq fitted mean (log10): 0.8561 ± 0.0071

## AUUGU
[1]
  FACS-Seq fitted mean (log10): 1.06 ± 0.018
[2]
  normalized RNA/DNA level with ligand (log10): 2.04 ± 0.047
[3]
  normalized RNA/DNA level without ligand (log10): 1.88 ± 0.064
[4]
  FACS-Seq fitted mean (log10): 1.15 ± 0.022

## AUUUG
[1]
  FACS-Seq fitted mean (log10): 0.103 ± 0.037
[2]
  normalized RNA/DNA level with ligand (log10): 2.03 ± 0.083
[3]
  normalized RNA/DNA level without ligand (log10): 1.93 ± 0.17
[4]
  FACS-Seq fitted mean (log10): 0.184 ± 0.037

## CAGGA
[1]
  FACS-Seq fitted mean (log10): 0.706 ± 0.028
[2]
  normalized RNA/DNA level with ligand (log10): 2.01 ± 0.082
[3]
  normalized RNA/DNA level without ligand (log10): 1.62 ± 0.25
[4]
  FACS-Seq fitted mean (log10): 0.799 ± 0.045

## ACAUG
[1]
  FACS-Seq fitted mean (log10): 0.862 ± 0.2
[2]
  normalized RNA/DNA level with ligand (log10): 1.913 ± 0.0094
[3]
  normalized RNA/DNA level without ligand (log10): 1.81 ± 0.02
[4]
  FACS-Seq fitted mean (log10): 1.01 ± 0.017

## CCAUU
[1]
  FACS-Seq fitted mean (log10): 0.558 ± 0.021
[2]
  normalized RNA/DNA level with ligand (log10): 1.983 ± 0.0031
[3]
  normalized RNA/DNA level without ligand (log10): 1.75 ± 0.049
[4]
  FACS-Seq fitted mean (log10): 0.688 ± 0.011

## CAAAU
[1]
  FACS-Seq fitted mean (log10): 0.264 ± 0.0079
[2]
  normalized RNA/DNA level with ligand (log10): 1.946 ± 0.0043
[3]
  normalized RNA/DNA level without ligand (log10): 1.6 ± 0.19
[4]
  FACS-Seq fitted mean (log10): 0.399 ± 0.048

## UGGUG
[1]
  FACS-Seq fitted mean (log10): 0.674 ± 0.065
[2]
  normalized RNA/DNA level with ligand (log10): 2.04 ± 0.041
[3]
  normalized RNA/DNA level without ligand (log10): 1.87 ± 0.1
[4]
  FACS-Seq fitted mean (log10): 0.661 ± 0.083

## UGUGA
[1]
  FACS-Seq fitted mean (log10): 0.563 ± 0.0013
[2]
  normalized RNA/DNA level with ligand (log10): 2.05 ± 0.037
[3]
  normalized RNA/DNA level without ligand (log10): 1.54 ± 0.11
[4]
  FACS-Seq fitted mean (log10): 0.837 ± 0.034

## UCAUG
[1]
  FACS-Seq fitted mean (log10): 0.358 ± 0.073
[2]
  normalized RNA/DNA level with ligand (log10): 1.9 ± 0.12
[3]
  normalized RNA/DNA level without ligand (log10): 1.89 ± 0.091
[4]
  FACS-Seq fitted mean (log10): 0.349 ± 0.033

## CAUAC
[1]
  FACS-Seq fitted mean (log10): 0.865 ± 0.024
[2]
  normalized RNA/DNA level with ligand (log10): 1.917 ± 0.0021
[3]
  normalized RNA/DNA level without ligand (log10): 1.8 ± 0.092
[4]
  FACS-Seq fitted mean (log10): 0.996 ± 0.019

## CGCUA
[1]
  FACS-Seq fitted mean (log10): 0.353 ± 0.072
[2]
  normalized RNA/DNA level with ligand (log10): 1.87 ± 0.069
[3]
  normalized RNA/DNA level without ligand (log10): 1.48 ± 0.041
[4]
  FACS-Seq fitted mean (log10): 0.612 ± 0.076

## ACAAC
[1]
  FACS-Seq fitted mean (log10): 0.304 ± 0.051
[2]
  normalized RNA/DNA level with ligand (log10): 1.97 ± 0.051
[3]
  normalized RNA/DNA level without ligand (log10): 1.86 ± 0.038
[4]
  FACS-Seq fitted mean (log10): 0.206 ± 0.062

## UUCUC
[1]
  FACS-Seq fitted mean (log10): 1.19 ± 0.051
[2]
  normalized RNA/DNA level with ligand (log10): 1.99 ± 0.049
[3]
  normalized RNA/DNA level without ligand (log10): 1.94 ± 0.057
[4]
  FACS-Seq fitted mean (log10): 1.15 ± 0.13

## ACCGU
[1]
  FACS-Seq fitted mean (log10): 0.885 ± 0.043
[2]
  normalized RNA/DNA level with ligand (log10): 1.952 ± 0.0024
[3]
  normalized RNA/DNA level without ligand (log10): 1.83 ± 0.039
[4]
  FACS-Seq fitted mean (log10): 0.856 ± 0.08

## UAAAU
[1]
  FACS-Seq fitted mean (log10): 0.912 ± 0.013
[2]
  normalized RNA/DNA level with ligand (log10): 1.978 ± 0.0035
[3]
  normalized RNA/DNA level without ligand (log10): 1.84 ± 0.13
[4]
  FACS-Seq fitted mean (log10): 0.9829 ± 0.0075

## CACAU
[1]
  FACS-Seq fitted mean (log10): 0.589 ± 0.032
[2]
  normalized RNA/DNA level with ligand (log10): 1.964 ± 0.0051
[3]
  normalized RNA/DNA level without ligand (log10): 1.68 ± 0.099
[4]
  FACS-Seq fitted mean (log10): 0.693 ± 0.025

## UAACA
[1]
  FACS-Seq fitted mean (log10): 0.606 ± 0.025
[2]
  normalized RNA/DNA level with ligand (log10): 1.99 ± 0.066
[3]
  normalized RNA/DNA level without ligand (log10): 1.55 ± 0.053
[4]
  FACS-Seq fitted mean (log10): 0.813 ± 0.024

## AUCUU
[1]
  FACS-Seq fitted mean (log10): 0.605 ± 0.046
[2]
  normalized RNA/DNA level with ligand (log10): 2.03 ± 0.055
[3]
  normalized RNA/DNA level without ligand (log10): 1.93 ± 0.086
[4]
  FACS-Seq fitted mean (log10): 0.585 ± 0.0056

## UGCCG
[1]
  FACS-Seq fitted mean (log10): 1.06 ± 0.058
[2]
  normalized RNA/DNA level with ligand (log10): 2.04 ± 0.043
[3]
  normalized RNA/DNA level without ligand (log10): 2.02 ± 0.055
[4]
  FACS-Seq fitted mean (log10): 0.883 ± 0.027

## UUGGA
[1]
  FACS-Seq fitted mean (log10): 0.406 ± 0.064
[2]
  normalized RNA/DNA level with ligand (log10): 2.01 ± 0.037
[3]
  normalized RNA/DNA level without ligand (log10): 1.59 ± 0.14
[4]
  FACS-Seq fitted mean (log10): 0.494 ± 0.023

## GCAUG
[1]
  FACS-Seq fitted mean (log10): 0.8295 ± 0.0081
[2]
  normalized RNA/DNA level with ligand (log10): 1.939 ± 0.013
[3]
  normalized RNA/DNA level without ligand (log10): 1.79 ± 0.026
[4]
  FACS-Seq fitted mean (log10): 0.966 ± 0.067

## CAUGU
[1]
  FACS-Seq fitted mean (log10): 0.628 ± 0.042
[2]
  normalized RNA/DNA level with ligand (log10): 1.98 ± 0.033
[3]
  normalized RNA/DNA level without ligand (log10): 1.96 ± 0.052
[4]
  FACS-Seq fitted mean (log10): 0.704 ± 0.062

## CUCUU
[1]
  FACS-Seq fitted mean (log10): 0.739 ± 0.01
[2]
  normalized RNA/DNA level with ligand (log10): 2.032 ± 0.0025
[3]
  normalized RNA/DNA level without ligand (log10): 1.91 ± 0.07
[4]
  FACS-Seq fitted mean (log10): 0.874 ± 0.038

## UAAGG
[1]
  FACS-Seq fitted mean (log10): 0.645 ± 0.086
[2]
  normalized RNA/DNA level with ligand (log10): 2.1 ± 0.067
[3]
  normalized RNA/DNA level without ligand (log10): 1.89 ± 0.041
[4]
  FACS-Seq fitted mean (log10): 0.739 ± 0.044

## AUGUC
[1]
  FACS-Seq fitted mean (log10): 0.983 ± 0.034
[2]
  normalized RNA/DNA level with ligand (log10): 1.99 ± 0.11
[3]
  normalized RNA/DNA level without ligand (log10): 1.84 ± 0.066
[4]
  FACS-Seq fitted mean (log10): 0.935 ± 0.12

## AGCCA
[1]
  FACS-Seq fitted mean (log10): 0.758 ± 0.027
[2]
  normalized RNA/DNA level with ligand (log10): 1.98 ± 0.038
[3]
  normalized RNA/DNA level without ligand (log10): 1.857 ± 0.0057
[4]
  FACS-Seq fitted mean (log10): 0.919 ± 0.027

## AACCA
[1]
  FACS-Seq fitted mean (log10): 0.923 ± 0.12
[2]
  normalized RNA/DNA level with ligand (log10): 2.001 ± 0.0053
[3]
  normalized RNA/DNA level without ligand (log10): 1.82 ± 0.047
[4]
  FACS-Seq fitted mean (log10): 0.908 ± 0.065

## CCAUA
[1]
  FACS-Seq fitted mean (log10): 0.864 ± 0.14
[2]
  normalized RNA/DNA level with ligand (log10): 1.95 ± 0.036
[3]
  normalized RNA/DNA level without ligand (log10): 1.5 ± 0.14
[4]
  FACS-Seq fitted mean (log10): 1.06 ± 0.12

## AGUCA
[1]
  FACS-Seq fitted mean (log10): 0.8 ± 0.087
[2]
  normalized RNA/DNA level with ligand (log10): 1.98 ± 0.14
[3]
  normalized RNA/DNA level without ligand (log10): 1.73 ± 0.059
[4]
  FACS-Seq fitted mean (log10): 0.766 ± 0.027

## UUAAC
[1]
  FACS-Seq fitted mean (log10): 0.885 ± 0.033
[2]
  normalized RNA/DNA level with ligand (log10): 1.946 ± 0.0047
[3]
  normalized RNA/DNA level without ligand (log10): 1.93 ± 0.042
[4]
  FACS-Seq fitted mean (log10): 0.858 ± 0.072

## CAGAA
[1]
  FACS-Seq fitted mean (log10): 0.0186 ± 0.078
[2]
  normalized RNA/DNA level with ligand (log10): 1.95 ± 0.054
[3]
  normalized RNA/DNA level without ligand (log10): 1.2 ± 0.22
[4]
  FACS-Seq fitted mean (log10): 0.681 ± 0.037

## ACUGG
[1]
  FACS-Seq fitted mean (log10): 1 ± 0.065
[2]
  normalized RNA/DNA level with ligand (log10): 2.05 ± 0.12
[3]
  normalized RNA/DNA level without ligand (log10): 1.91 ± 0.091
[4]
  FACS-Seq fitted mean (log10): 0.915 ± 0.066
